Test results from US11325945B2, “Peptide based PCSK9 vaccine” (CADILA HEALTHCARE LIMITED, priority 2017, dated 2022).
Non-standard residues stand in square brackets, D forms with d. Primed or numbered codes have the meaning given here. No end group written: not given here. 2‑aminophenyl pentanoic acid = 2-Aminophenyl pentanoic acid; Hyp = O=C(O)[C@@H]1C[C@@H](O)CN1; NMeI = CC[C@H](C)[C@H](NC)C(=O)O; hArg = N=C(N)NCCCC[C@H](N)C(=O)O; Cit = NC(=O)NCCC[C@H](N)C(=O)O; Nle = CCCC[C@H](N)C(=O)O; Aib = CC(C)(N)C(=O)O

Assays:
[1] = molecular target: T1, recombinant human PCSK9 (Homo sapiens, UniProt Q8NBP7); assay: Affinity of new peptides for recombinant human PCSK9 by surface plasmon resonance (Biacore T200); type: binding; details: SPR, 25° C.
T1 construct: His; purchased BPS Biosciences
Description: (§1) Affinity parameters of new peptides for recombinant human PCSK9 were analyzed by surface plasmon resonance (SPR), using a Biacore instrument (Biacore T200, GE Healthcare). SPR experiments were performed at 25° C. with a BIACORE T200 apparatus (GE Healthcare, Uppsala, Sweden).
(§2) Purified recombinant human PCSK9 (His-tagged, BPS Biosciences) diluted to 100-150 μg/mL in 10 mM acetate buffer, pH 5.0, was immobilized on one of the four flow cells of a Series S Sensor Chip CMS to a level of approximately 6000 to 8000 RU (resonance units) by the use of amine-coupling chemistry. The surface was blocked with 1M ethanolamine, pH 8.5. Whereas one flow cell was immobilized as blank for reference subtraction (no PCSK9). 10 mM Hepes (pH 7.4) with 150 mM NaCl was used as running buffer. The rest two flow cells were saved for future use.
(§3) 100× Stock solutions of NCE (new peptides) were made in 100% DMSO and were diluted to range of concentrations in 10 mM Hepes, pH7.4+150 mM NaCl so that the final conc of DMSO is kept at 1%. Binding/Kinetics studies were conducted by passing various concentrations of NCEs over blank as well as ligand (protein) immobilized surface. Each cycle consisted of a 60 s or 120 s analyte (diluted small molecule drug) injection at flow rate with between 5 to 30 μL/min (the association phase), followed by a dissociation phase with between 60 to 180 s. If required, regeneration was done using a 30 s (15 μL) injection of 10 mM glycine/HCl (pH 1.5) and 20 s or 30 s (10 or 15 μL) injection of 10 mM NaOH. The data were analyzed using the Biacore T200 Evaluation software. All the curves were reference-subtracted. Baselines were adjusted to zero for all curves and data were presented as binding RU (Average of 5 s window) 5 s before end of sample injection.
For KD (equilibrium dissociation constant) determinations analyte curves were subtracted from buffer blank and modeled assuming a simple 1:1 interaction to generate the kinetic data.

[2] = tested on: human PCSK9; assay: Serum antibody detection by affinity determination against human PCSK9 using SPR assay; type: binding
Description: as §1, §2
as §3, with “Baselines were adjusted to zero for all curves and data were presented as binding RU (Average of 5 s window) 5 s before end of sample injection.” left out
Female BALB/c mice of 12-15 weeks of age issued from animal house and kept for 2-3 acclimatization. […] Serum was separated and serum total cholesterol was measured and immunogenicity or antibody confirmation was done using ELISA for PCSK9 antibody titer, binding of serum antibodies with human PCSK9 using Surface plasmon resonance (SPR) assay and LDLR-PCSK9 interaction inhibition assay.

[3] = tested on: LDLR-PCSK9 interaction; assay: LDLR-PCSK9 interaction inhibition assay with serum from vaccine treated animals (PCSK9[Biotinylated]-LDLR Binding Assay Kit); type: biochemical; details: peptide formulations, week 5, in words
Description: (§4) Female BALB/c mice of 12-15 weeks of age issued from animal house and kept for […]. Mice had access to food and water ad libitum and were kept under a 12 hrs light/dark cycle. On Day-0 (pre-treatment) animals bled and serum was harvested for total cholesterol measurement. Animals were randomized and grouped to various treatments based on their total cholesterol and body weights. On next day of Day-0 (pre-treatment) blood collection animals were immunised with 0.3 ml of vaccine formulations as mentioned Table No. 1 by subcutaneous or intramuscular route. Next booster injection was given on 2 weeks and 4 weeks after first injection and animals were bled for immunogenicity measurement on two weeks thereafter till week 7 and then every four week till 32 week, detailed schedule of blood collection was Day-0 (pre-treatment) from there 5th, 7th, 20th, 24th, 28th, 32nd, 45th and 57th week after first vaccine administration. Serum was separated and serum total cholesterol was measured and immunogenicity or antibody confirmation was done using ELISA for PCSK9 antibody titer, binding of serum antibodies with human PCSK9 using Surface plasmon resonance (SPR) assay and LDLR-PCSK9 interaction inhibition assay.
Inhibition of LDLR-PCSK9 interaction by antibody (Ab) in serum from vaccine treated animal were assayed using BPS Bioscience in-vitro PCSK9[Biotinylated]-LDLR Binding Assay Kit (BPS Bioscience, San Diego, Calif., USA) with minor modifications. First, LDLR ectodomain is coated on a 96-well plate and plate was incubated overnight. Next, PCSK9-biotin was diluted in 1×PCSK9 assay buffer to obtain 2.5 ng/μl (50 ng/20 μl) concentration and this master mix, test inhibitor (serum samples from animal studies), inhibitor buffer was added to LDL-R coated plate and incubated at room temperature for 2 hours. Finally, the plate is treated with streptavidin-HRP followed by addition of an HRP substrate to produce chemiluminescence, which was then measured using a chemiluminescence reader according to the manufacturer's instructions. […]

[4] = tested on: PCSK9; assay: Immunogenicity study in BALB/c mice: anti-PCSK-9 ELISA antibody titers in serum; type: in vivo, mouse; details: peptide formulations, in words
Description: as §4
At specific intervals of time (15 days post immunization with each booster), serum samples were collected from all groups of mice. 96-well ELISA plates (#442402) were pre-coated with PCSK-9 protein 50 ng/well and plate incubated overnight at 2-8° C. Next day, wells were washed to remove unbound protein and blocked in 2% skimmed milk-PB ST for 2 hours, and washed with PBST. Sera samples were diluted 1:20 with 0.2% skimmed milk made in PBST. Appropriate volume of samples and standards was added to each well, and incubated for 1 hour at 37° C. Anti-mouse IgG secondary HRP-labeled antibody was added to each well and incubated at 37° C. for 1 hour, then washed. […] Plates were read at 492 nm on a Spectramax microplate reader. […] By using the negative control value, cut-off value was calculated and the corrected OD's above the cut off value were treated as […]. […]

T1 sequence (Q8NBP7 153-692): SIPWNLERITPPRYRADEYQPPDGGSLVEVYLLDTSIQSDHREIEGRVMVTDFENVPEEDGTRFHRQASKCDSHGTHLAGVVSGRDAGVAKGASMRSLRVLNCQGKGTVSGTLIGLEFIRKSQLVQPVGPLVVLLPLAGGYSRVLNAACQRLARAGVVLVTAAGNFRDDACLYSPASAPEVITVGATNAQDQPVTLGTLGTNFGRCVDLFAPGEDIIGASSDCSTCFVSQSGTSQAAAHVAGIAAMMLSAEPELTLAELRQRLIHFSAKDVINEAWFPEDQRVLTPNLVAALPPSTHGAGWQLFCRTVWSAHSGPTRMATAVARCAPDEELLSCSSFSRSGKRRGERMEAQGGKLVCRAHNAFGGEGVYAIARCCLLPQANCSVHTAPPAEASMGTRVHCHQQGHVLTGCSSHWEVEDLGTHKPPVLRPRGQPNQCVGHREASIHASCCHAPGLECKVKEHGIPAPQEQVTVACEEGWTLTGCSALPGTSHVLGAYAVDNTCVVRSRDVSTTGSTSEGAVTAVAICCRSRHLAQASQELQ

Row | Substance | Binding - Response Unit(RU) ([1]; peptide 50 μM) | Binding - Response Unit(RU) ([1]; peptide 100 μM) | antibody response (SPR) as compared to Seq.ID.No. 1 ([2]; week 5, in words) | LDLR-PCSK9 interaction inhibition compared with Seq. ID No.1 [3] | antibody titers against human PCSK9 as compared to Seq.ID.No.1 [4] | antibody response (SPR) as compared to Seq.ID.No. 1 ([2]; week-57, in words)
1 | 1 (SIPWNLERITPC; PCSK9) [compound 1] | 7.4 |  |  |  |  | 
2 | 4 (SIPWNLER[Nle]TPC) [compound 4] | 13.05 | 30.00 |  |  |  | 
3 | 5 (SIPWNLER[Aib]TPC) [compound 5] | 2.30 | 7.10 |  |  |  | 
4 | 6 (SIPWNLE[hArg]ITPC) [compound 6] | 6.55 | 17.50 |  |  |  | 
5 | 7 (SIPWN[Nle]ERITPC) [compound 7] | 6.65 | 16.00 |  |  |  | 
6 | 8 (SI[Hyp]WNLERITPC) [compound 8] | 5.70 | 13.25 |  |  |  | 
7 | 10 (SIPWN[Aib]ERITPC) [compound 10] | 3.00 | 7.50 |  |  |  | 
8 | 12 (SIPWNLE[Cit]ITPC) [compound 12] | 3.10 | 6.70 |  |  |  | 
9 | 13 (SIPWNLERI[Aib]PC) [compound 13] | 9.75 | 37.35 |  |  |  | 
10 | 14 ([Aib]IPWNLERITPC) [compound 14] | 7.10 | 15.00 |  |  |  | 
11 | 15 (S[NMeI]IPWNLERITPC) [compound 15] | 11.45 | 29.85 |  |  |  | 
12 | 18 (SIP[2‑aminophenyl pentanoic acid]NLERITPC) [compound 18] | 10.20 | 17.85 |  |  |  | 
13 | 19 (SIP[(S)‑2‑amino‑3‑(2′-ethyl-4′-methoxy-(1,1′-biphenyl)-4-yl)propanoic acid]NLERITPC) [compound 19] | 35.15 | 85.90 |  |  |  | 
14 | SI-Hyp-WNLERITPC (SI[Hyp]WNLERITPC) [Seq. ID. No. 8] |  |  | significantly higher antibody response | significantly higher | higher | 
15 | SIPWN-Nle-ERITPC (SIPWN[Nle]ERITPC) [Seq. ID. No. 7] |  |  |  | significantly higher | higher | 
16 | SIPWNLE-Cit-ITPC (SIPWNLE[Cit]ITPC) [Seq. ID. No. 12] |  |  | significantly higher antibody response | significantly higher | higher | significantly higher antibody response
